Square brackets hold non-standard residues; d marks the D form. Ends that are not written are not given here. Nle = CCCC[C@H](N)C(=O)O
Tests used:
MC1-R = target: T1, MC1-R (Mus musculus, UniProt Q01727); assay: competitive inhibition binding assay, 125I-NDP-alpha-MSH, B-16 mouse melanoma cell membranes; settings: for % Inhibition at 1 μM at Melanocortin Receptor 1: 1 μM test peptide, 0.4 nM 125I-NDP-alpha-MSH, B-16 mouse melanoma cell membranes
T1 construct: membranes prepared from hMC3-R, hMC4-R, hMC5-R, and B-16 mouse melanoma cells (containing MC1-R); endogenous in cells; host or cells: B-16 mouse melanoma cells (membranes)
Outline: (§1)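 Membranes from hMC3-R, hMC4-R, hMC5-R or B-16 cells (MC1-R) incubated 90 min at room temperature with 0.4 nM 125I-NDP-alpha-MSH and rhenium-complexed test peptide, typically 1 μM, in HEPES pH 7.2 with Mg/Ca/K. Filter-bound radioactivity counted; % inhibition of specific binding (1 μM alpha-MSH defines nonspecific), triplicate means.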

hMC3-R = target: T2, hMC3-R (Homo sapiens, UniProt P41968); assay: competitive inhibition binding assay, 125I-NDP-alpha-MSH, hMC3-R membranes; settings: for % Inhibition at 1 μM at Melanocortin Receptor 3: 1 μM test peptide, 0.4 nM 125I-NDP-alpha-MSH, hMC3-R membranes
T2 construct: expressed in transfected cells
Outline: as §1

hMC4-R = target: T3, hMC4-R (Homo sapiens, UniProt P32245); assay: competitive inhibition binding assay, 125I-NDP-alpha-MSH, hMC4-R membranes; settings: for % Inhibition at 1 μM at Melanocortin Receptor 4: 1 μM test peptide, 0.4 nM 125I-NDP-alpha-MSH, hMC4-R membranes
T3 construct: expressed in transfected cells
Outline: as §1

hMC5-R = target: T4, hMC5-R (Homo sapiens, UniProt P33032); assay: competitive inhibition binding assay, 125I-NDP-alpha-MSH, hMC5-R membranes; settings: for % Inhibition at 1 μM at Melanocortin Receptor 5: 1 μM test peptide, 0.4 nM 125I-NDP-alpha-MSH, hMC5-R membranes
T4 construct: expressed in transfected cells
Outline: as §1

T3 sequence (P32245 whole entry): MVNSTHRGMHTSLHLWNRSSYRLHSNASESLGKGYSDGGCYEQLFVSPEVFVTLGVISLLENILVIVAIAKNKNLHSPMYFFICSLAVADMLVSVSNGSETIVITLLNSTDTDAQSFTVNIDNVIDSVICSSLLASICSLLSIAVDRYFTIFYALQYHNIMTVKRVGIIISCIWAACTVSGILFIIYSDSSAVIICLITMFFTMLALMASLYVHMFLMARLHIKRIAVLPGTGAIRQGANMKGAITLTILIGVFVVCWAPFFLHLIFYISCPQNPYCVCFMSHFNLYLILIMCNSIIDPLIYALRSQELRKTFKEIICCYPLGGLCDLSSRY
T2 sequence (P41968 whole entry): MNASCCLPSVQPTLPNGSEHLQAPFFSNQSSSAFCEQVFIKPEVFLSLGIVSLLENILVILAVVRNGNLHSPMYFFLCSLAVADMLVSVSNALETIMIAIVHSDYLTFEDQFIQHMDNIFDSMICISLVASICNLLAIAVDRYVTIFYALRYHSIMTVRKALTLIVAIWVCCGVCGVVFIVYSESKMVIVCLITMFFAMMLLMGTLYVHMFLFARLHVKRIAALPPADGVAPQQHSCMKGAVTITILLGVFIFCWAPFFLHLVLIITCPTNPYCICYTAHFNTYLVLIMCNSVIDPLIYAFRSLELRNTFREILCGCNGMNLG
T1 sequence (Q01727 whole entry): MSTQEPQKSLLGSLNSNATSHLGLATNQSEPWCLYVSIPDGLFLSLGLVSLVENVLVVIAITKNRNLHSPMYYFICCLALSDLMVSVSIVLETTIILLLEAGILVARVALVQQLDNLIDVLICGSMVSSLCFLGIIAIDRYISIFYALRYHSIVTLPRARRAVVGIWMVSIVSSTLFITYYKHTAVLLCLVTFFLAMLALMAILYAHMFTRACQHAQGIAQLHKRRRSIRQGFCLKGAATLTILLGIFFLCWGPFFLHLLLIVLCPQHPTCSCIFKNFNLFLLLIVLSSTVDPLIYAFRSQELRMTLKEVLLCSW
T4 sequence (P33032 whole entry): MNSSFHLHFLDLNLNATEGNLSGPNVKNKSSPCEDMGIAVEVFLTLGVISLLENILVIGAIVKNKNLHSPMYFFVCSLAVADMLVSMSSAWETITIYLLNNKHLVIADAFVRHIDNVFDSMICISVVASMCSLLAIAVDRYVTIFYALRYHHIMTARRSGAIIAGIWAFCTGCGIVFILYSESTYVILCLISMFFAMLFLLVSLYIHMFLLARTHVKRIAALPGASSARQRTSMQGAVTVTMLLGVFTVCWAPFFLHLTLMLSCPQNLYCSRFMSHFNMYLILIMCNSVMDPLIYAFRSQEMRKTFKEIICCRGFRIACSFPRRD

Substance	% Inhibition at 1 μM at Melanocortin Receptor 1 (MC1-R)	% Inhibition at 1 μM at Melanocortin Receptor 3 (hMC3-R)	% Inhibition at 1 μM at Melanocortin Receptor 4 (hMC4-R)	% Inhibition at 1 μM at Melanocortin Receptor 5 (hMC5-R)	binding to MC1-R, in words (MC1-R)	binding to MC3-R, in words (hMC3-R)	binding to MC4-R, in words (hMC4-R)	binding to MC5-R, in words (hMC5-R)
Tyr-Val-Nle-Gly-His-D-Phe-Cys-Arg-Trp-Asp-Arg-Phe-NH2 (YV[Nle]GH[dF]CRWDRF-NH2; also: Re complex) [3-6]	52%	20%	31%	31%	–	–	–	–
Tyr-Val-Nle-Gly-His-D-Phe-Cys-Trp-Asp-Arg-Phe-NH2 (YV[Nle]GH[dF]CWDRF-NH2; numbers in words are those of the source; also: oxorhenium(V) N3S1 chelate complex (Re=O)) [5-5]	67%	15%	26%	28%	–	–	–	–
Tyr-Val-Nle-Gly-His-Phe-Arg-Cys-Trp-Asp-Arg-Phe-NH2 (YV[Nle]GHFRCWDRF-NH2; numbers in words are those of the source; also: oxorhenium(V) N3S1 chelate (Re=O) with Cys) [4-5]	89%	87%	74%	68%	preserved all receptor binding	preserved all receptor binding	preserved all receptor binding	preserved all receptor binding
Tyr-Val-Nle-Gly-His-Phe-Arg-Trp-Asp-Arg-Cys-Phe-NH2 (YV[Nle]GHFRWDRCF-NH2; numbers in words are those of the source; also: oxorhenium(V) N3S1 chelate (Re=O) with Cys) [4-2]	75%	49%	23%	51%	–	–	–	–
Tyr-Val-Nle-Gly-His-Phe-Arg-Trp-Asp-Arg-Phe-Cys-NH2 (GHFRWDRFC; N-terminal Tyr-Val-Nle; C-terminal amide; printed: Gly-His-Phe-Arg-Trp-Asp-Arg-Phe-Cys-) [4-1]	56%	69%	36%	41%	–	–	–	–
Tyr-Val-Nle-Gly-His-Phe-Arg-Trp-Asp-Arg-Phe-NH2 (GHFRWDRF; N-terminal Tyr-Val-Nle, C-terminal amide; printed: Gly-His-Phe-Arg-Trp-Asp-Arg-Phe-) [Parent, reference compound]	–	–	–	–	high affinity	high affinity	moderate affinity	moderate affinity
Tyr-Val-Nle-Gly-His-Phe-Arg-Trp-Asp-Cys-Arg-Phe-NH2 (YV[Nle]GHFRWDCRF-NH2; numbers in words are those of the source; also: oxorhenium(V) N3S1 chelate (Re=O) with Cys) [4-3]	44%	18%	23%	65%	–	–	–	–
Tyr-Val-Nle-Gly-His-Phe-Arg-Trp-Cys-Asp-Arg-Phe-NH2 (YV[Nle]GHFRWCDRF-NH2; numbers in words are those of the source; also: oxorhenium(V) N3S1 chelate (Re=O) with Cys) [4-4]	52%	20%	39%	47%	–	–	–	–
Tyr-Val-Nle-Gly-His-Phe-Cys-Arg-Trp-Asp-Arg-Phe-NH2 (YV[Nle]GHFCRWDRF-NH2; numbers in words are those of the source; also: oxorhenium(V) N3S1 chelate (Re=O) with Cys) [4-6]	−8%	5%	−2%	24%	–	–	–	–
YVCGH[dF]RWDRF-NH2 [5-9]	89%	53%	66%	53%	–	–	–	–

From patent publication US7351690B2, “Knockout identification of target-specific sites in peptides” (priority 2000, dated 2008)
